The test has as its target CD44v3 (Homo sapiens, UniProt P16070). As to the kind of experiment: MST.

Chain of CD44v3 (P16070 21-649): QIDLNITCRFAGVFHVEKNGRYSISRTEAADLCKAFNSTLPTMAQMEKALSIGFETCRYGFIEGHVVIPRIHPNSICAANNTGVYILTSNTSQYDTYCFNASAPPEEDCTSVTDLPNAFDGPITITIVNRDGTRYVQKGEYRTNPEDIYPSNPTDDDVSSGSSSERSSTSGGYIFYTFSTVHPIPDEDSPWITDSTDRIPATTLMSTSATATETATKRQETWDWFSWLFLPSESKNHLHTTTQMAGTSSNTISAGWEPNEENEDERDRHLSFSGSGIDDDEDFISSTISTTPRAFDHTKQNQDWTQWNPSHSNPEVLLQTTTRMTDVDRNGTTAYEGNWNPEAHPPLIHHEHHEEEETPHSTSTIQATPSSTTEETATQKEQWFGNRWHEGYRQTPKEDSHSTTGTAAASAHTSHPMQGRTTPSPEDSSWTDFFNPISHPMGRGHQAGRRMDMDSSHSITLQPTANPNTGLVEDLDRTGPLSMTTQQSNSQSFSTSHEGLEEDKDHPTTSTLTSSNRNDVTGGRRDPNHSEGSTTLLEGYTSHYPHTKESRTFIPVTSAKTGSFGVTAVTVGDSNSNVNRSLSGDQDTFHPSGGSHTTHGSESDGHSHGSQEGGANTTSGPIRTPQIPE

B1: TrkA (protein)
chain: AAPCPDACCPHGSSGLRCTRDGALDSLHHLPGAENLTELYIENQQHLQHLELRDLRGLGELRNLTIVKSGLRFVAPDAFHFTPRLSRLNLSFNALESLSWKTVQGLSLQELVLSGNPLHCSCALRWLQRWEEEGLGGVPEQKLQCHGQGPLAHMPNASCGVPTLKVQVPNASVDVGDDVLLRCQVEGRGLEQAGWILTELEQSATVMKSGGLPSLGLTLANVTSDLNRKNVTCWAENDVGRAEVSVQVNVSFPASVQLHTAVEMHHWCIPFSVDGQPAPSLRWLFNGSVLNETSFIFTEFLEPAANETVRHGCLRLNQPTHVNNGNYTLLAANPFGQASASIMAAFMDNPFEFNPEDPIPVSFSPVDTNSTSGDPVEKKDETPFGVSVAVG
modifications: NGF
What is called Kd is the equilibrium constant for the complex coming apart. Read a low Kd as higher affinity. B1 gave a Kd of 9.47 nM. That is a single-digit nanomolar value.

For the origin of these results see article PMC8962522 (2022).
